These results are taken from paper PMC4817253.

The data set deals with Nc1ncnc2c1ncn2[C@@H]1O[C@H](CO[P@](=O)(O)O[C@@H]2[C@H](O)[C@@H](CO[P@](=O)(O)O[C@@H]3[C@H](O)[C@@H](CO[P@](=O)(O)O[P@@](=O)(O)OP(=O)(O)O)O[C@H]3n3cnc4c(N)ncnc43)O[C@H]2n2cnc3c(N)ncnc32)[C@@H](O)[C@H]1O. Briefly: purified protein. As to conditions: pH 7.2; 30.0 °C.

The Km is the substrate concentration at which the rate is half of its maximum. As a reminder, the kcat/Km is the second-order rate constant that governs catalysis at low substrate concentration. For the substance “HKU5 NS4b (Pipistrellus bat coronavirus HKU5)”, the Km is 1.3 ± 0.3 µM and the kcat/Km was found to be 1.4e+06 M⁻¹ s⁻¹.
Consider SC2013 NS4b (BtVs-BetaCoV/SC2013), for which the Km amounted to 2.9 ± 0.6 µM and the kcat/Km was 800000 M⁻¹ s⁻¹.
As to “MERS-CoV NS4b (Human betacoronavirus 2c EMC/2012)”, the Km is reported as 2.6 ± 0.6 µM and the kcat/Km is 800000 M⁻¹ s⁻¹.
Regarding “MHV NS2 (Murine hepatitis virus strain A59)”, the Km amounted to 6.7 ± 1.6 µM.
